Here are results for 11 molecules from patent US20240376170A1 (BRIGHT PEAK THERAPEUTICS, published 2024).

Bridges are numbered along the chain shown (N, C = ends). Primed or numbered codes have the meaning given here. [ ]: non-standard residue; d: D form. Ygp = O-(8x polyethylene glycol-amino)-tyrosine (Tyr, amino-capped PEG8); Yn3 = O-(9x polyethylene glycol-azido)-tyrosine (Tyr, azide-capped PEG9); Ygp(3) = O-(PEG8-amino)-tyrosine; Yn3(3) = O-(PEG9-azido)-tyrosine; hSer = N[C@@H](CCO)C(=O)O; Nle = CCCC[C@H](N)C(=O)O

Test [1] addresses T1, IL-2 receptor βγ complex on human T cells (human, UniProt P14784 27-551; P31785 23-369).
T1 sequence (looked up) 1: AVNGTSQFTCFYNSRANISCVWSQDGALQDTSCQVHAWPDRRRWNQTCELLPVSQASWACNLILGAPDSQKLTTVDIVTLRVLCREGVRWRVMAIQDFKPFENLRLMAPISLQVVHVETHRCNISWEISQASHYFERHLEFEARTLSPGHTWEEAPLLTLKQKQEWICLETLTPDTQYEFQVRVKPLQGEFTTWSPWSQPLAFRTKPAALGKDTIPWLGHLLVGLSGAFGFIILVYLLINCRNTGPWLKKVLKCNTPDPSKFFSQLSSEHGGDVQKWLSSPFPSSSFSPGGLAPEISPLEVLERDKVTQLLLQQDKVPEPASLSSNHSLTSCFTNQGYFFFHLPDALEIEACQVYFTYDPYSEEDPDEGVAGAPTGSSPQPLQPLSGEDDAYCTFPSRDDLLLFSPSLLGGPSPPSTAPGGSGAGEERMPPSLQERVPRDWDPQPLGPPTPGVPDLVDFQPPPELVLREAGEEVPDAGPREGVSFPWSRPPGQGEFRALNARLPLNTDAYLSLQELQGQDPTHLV
T1 sequence (looked up) 2: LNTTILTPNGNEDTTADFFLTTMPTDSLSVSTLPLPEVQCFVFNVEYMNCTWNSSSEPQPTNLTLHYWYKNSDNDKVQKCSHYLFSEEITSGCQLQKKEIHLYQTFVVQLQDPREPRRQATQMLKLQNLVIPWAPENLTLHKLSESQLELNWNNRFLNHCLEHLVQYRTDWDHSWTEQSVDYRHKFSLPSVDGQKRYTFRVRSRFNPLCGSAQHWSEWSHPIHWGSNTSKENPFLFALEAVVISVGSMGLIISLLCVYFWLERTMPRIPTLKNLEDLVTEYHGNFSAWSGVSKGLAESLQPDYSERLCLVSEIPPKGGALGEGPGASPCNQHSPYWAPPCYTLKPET
Briefly: cell-based or functional assay.

Test [2] has as its target T2, IL-2Rβγ on HEK-Blue IL-2Rβγ reporter cells (InvivoGen) (UniProt P14784 27-551; P31785 23-369, limits assumed).
T2 sequence (looked up) 1: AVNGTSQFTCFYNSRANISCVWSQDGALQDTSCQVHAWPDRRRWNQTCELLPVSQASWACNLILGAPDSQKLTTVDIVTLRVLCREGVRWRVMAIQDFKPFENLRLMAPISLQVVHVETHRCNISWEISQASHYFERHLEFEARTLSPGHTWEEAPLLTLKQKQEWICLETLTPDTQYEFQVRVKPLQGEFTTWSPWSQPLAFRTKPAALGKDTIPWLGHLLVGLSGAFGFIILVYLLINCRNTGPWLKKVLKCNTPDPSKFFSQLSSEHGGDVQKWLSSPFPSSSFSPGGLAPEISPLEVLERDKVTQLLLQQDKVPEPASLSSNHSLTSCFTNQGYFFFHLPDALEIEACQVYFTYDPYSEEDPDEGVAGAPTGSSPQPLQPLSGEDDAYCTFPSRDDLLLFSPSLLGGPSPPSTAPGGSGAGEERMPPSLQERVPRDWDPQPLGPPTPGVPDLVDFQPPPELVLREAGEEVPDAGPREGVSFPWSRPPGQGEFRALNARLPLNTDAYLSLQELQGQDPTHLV
T2 sequence (looked up) 2: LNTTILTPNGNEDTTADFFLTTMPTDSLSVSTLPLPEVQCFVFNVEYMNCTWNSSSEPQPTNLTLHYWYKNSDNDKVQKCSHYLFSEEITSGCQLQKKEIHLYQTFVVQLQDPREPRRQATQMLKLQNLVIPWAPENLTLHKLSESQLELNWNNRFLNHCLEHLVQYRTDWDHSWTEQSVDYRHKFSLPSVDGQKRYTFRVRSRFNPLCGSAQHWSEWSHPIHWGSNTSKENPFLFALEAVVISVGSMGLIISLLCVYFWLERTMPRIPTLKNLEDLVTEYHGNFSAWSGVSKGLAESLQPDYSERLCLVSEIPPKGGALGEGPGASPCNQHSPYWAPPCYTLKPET
Briefly: cell-based or functional assay.

The target of test [3] is T3, recombinant human IL-2 receptor beta containing a His-tag and Avi-tag (human, UniProt P14784 27-239).
T3 construct: Bought; attached to the SAX2 biosensor; also called CD122; IL-2R β; not shown: His-tag and Avi-tag
T3 sequence (looked up): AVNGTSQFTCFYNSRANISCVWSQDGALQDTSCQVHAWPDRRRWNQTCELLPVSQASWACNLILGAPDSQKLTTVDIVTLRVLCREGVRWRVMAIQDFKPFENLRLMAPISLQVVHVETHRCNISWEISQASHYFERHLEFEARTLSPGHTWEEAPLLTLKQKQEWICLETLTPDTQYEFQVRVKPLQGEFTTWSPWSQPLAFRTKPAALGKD
The test is described as follows: BLI (Octet R8), receptor on SAX2 sensor. The method, then: (§1) Bilayer interferometry (BLI) assays were used to measure the binding constants between activatable IL-2 polypeptides (and activated versions thereof) to IL-2 receptor subunits or receptor complexes. BLI assays were conducted on an Octet® R8 instrument. Assay plates were 96 well, polypropylene, F-bottom (chimney well), black microplates (Greiner Bio-one, Cat. No: 655209). The biosensors were Octet® SAX2 (Sartorius, Cat. No: 18-5136). The assay buffer was 1X Kinetic Buffer (Sartorius, Cat. no: 18-5136) or Phosphate Buffered Saline (PBS) that contained 0.02% (v: v) Tween 20 (Polysorbate 20) and 0.1% (w/v) bovine serum albumin (BSA). The sensor was regenerated between measurements in 10 mM glycine pH 2.7 buffer.
(§2) Sensor attached receptors were either recombinant human IL-2 receptor beta containing a His-tag and Avi-tag™ (R&D Systems™) or an Avi-tag™ Fc with human IL-2R beta and IL-2R gamma attached (Acrobiosystems Cat. no: ACRB-ILG-H₈₂F3-25UG). Receptors were reconstituted from lyophilized powder to 500 μg/ml in PBS. Analytes were diluted in Kinetic buffer to 300 nM, then serially diluted to lower concentrations.

Test [4] has as its target T4, Avi-tag Fc with human IL-2R beta and IL-2R gamma attached (Acrobiosystems ACRB-ILG-H82F3-25UG) (human, UniProt P14784 27-239; P31785 23-262).
T4 construct: Bought; attached to the SAX2 biosensor; also called CD122 CD132; IL-2R βγ; not shown: Fc and Avi-tag
T4 sequence (looked up) 1: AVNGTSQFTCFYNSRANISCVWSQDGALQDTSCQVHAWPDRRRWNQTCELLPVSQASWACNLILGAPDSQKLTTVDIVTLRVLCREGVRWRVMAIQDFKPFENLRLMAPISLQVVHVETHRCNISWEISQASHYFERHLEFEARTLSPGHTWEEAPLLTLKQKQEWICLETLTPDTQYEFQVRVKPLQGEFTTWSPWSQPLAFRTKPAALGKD
T4 sequence (looked up) 2: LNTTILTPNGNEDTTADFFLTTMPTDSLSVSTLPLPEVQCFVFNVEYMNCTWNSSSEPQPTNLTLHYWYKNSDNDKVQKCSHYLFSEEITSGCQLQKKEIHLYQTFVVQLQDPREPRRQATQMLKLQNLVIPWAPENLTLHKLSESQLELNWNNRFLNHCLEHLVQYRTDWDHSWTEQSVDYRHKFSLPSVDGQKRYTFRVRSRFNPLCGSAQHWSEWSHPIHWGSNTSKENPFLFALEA
Briefly: BLI (Octet R8), receptor on SAX2 sensor. The method, then:
as §1, §2

B1: CMP-150, MMP2 cleaved (ligand)
chain: APTSSSTKKTQLQLEHLLLDLK[Nle]ILNGINNYKNPKLTR[Nle]L[hSer][Yn3(3)]KF[Ygp(3)][Nle]PKKATELKHLQCLEEELKPLEEVL[hSer]LAQSKNFHLRPRDLISNINVIVLELKGSETTF[hSer]CEYADETATIVEFLNRWITFSQSIISTLT
modifications: not fully specified; also: further groups not given here
As to B1, the “Average EC50, pSTAT5 Assay (T cells), MMP2 cleaved molecule” value (“Average EC50 … MMP2 cleaved molecule” for short) in test [1] came to 0.45 nM.

B2: CMP-149, MMP2 cleaved (ligand)
chain: APTSSSTKKTQLQLEHLLKDLQ[Nle]ILNGINNYKNPKLTR[Nle]L[hSer][Yn3(3)]KF[Ygp(3)][Nle]PKKATELKHLQCLEEELKPLEEVL[hSer]LAQSKNFHLRPRDLISNINVIVLELKGSETTF[hSer]CEYADETATIVEFLNRWITFSQSIISTLT
modifications: also: MMP2-cleaved form, remnant not given here, Lys19 side chain attached moiety
Regarding B2, the “Average EC50 … MMP2 cleaved molecule” value in test [1] worked out at 9.56 nM.

B3: CMP-146, MMP2 cleaved (ligand)
chain: APTSSSTKKTKLQLEHLLLDLQ[Nle]ILNGINNYKNPKLTR[Nle]L[hSer][Yn3(3)]KF[Ygp(3)][Nle]PKKATELKHLQCLEEELKPLEEVL[hSer]LAQSKNFHLRPRDLISNINVIVLELKGSETTF[hSer]CEYADETATIVEFLNRWITFSQSIISTLT
modifications: also: MMP2-cleaved form, remnant not given here, Lys11 side chain attached moiety
As for B3, the “Average EC50 … MMP2 cleaved molecule” value in test [1] was 0.92 nM.

B4: CMP-319 (ligand)
chain: RGRRVANLVGAPTSSSTKKTQLQLEHLLLDLQEILNGINNYKNPKLTR[Nle]L[hSer][Yn3]KF[Ygp][Nle]PKKATELKHLQCLEEELKPLEEVL[hSer]LAQSKNFHLRPRDLISNINVIVLELKGSETTF[hSer]CEYADETATIVEFLNRWITFSQSIISTLT
modifications: lactam N-33; ends not checked
For B4, in test [2], the “Average EC50, HEK-Blue IL-2R (CD122+, CD132+) Reporter Assay, intact molecule” value worked out at 1.05 nM. In addition, in test [3], the Kd amounted to 59.5 nM, the koff was determined as 0.0122 s⁻¹ and the kon turned out to be 206000 M⁻¹ s⁻¹. In test [4], binding was characterised by a dissociation constant (Kd) of 9.19 nM, the off-rate constant (koff) was 0.000786 s⁻¹ and the kon stood at 85500 M⁻¹ s⁻¹.

B5: CMP-149 (ligand)
chain: APTSSSTKKTQLQLEHLLKDLQ[Nle]ILNGINNYKNPKLTR[Nle]L[hSer][Yn3(3)]KF[Ygp(3)][Nle]PKKATELKHLQCLEEELKPLEEVL[hSer]LAQSKNFHLRPRDLISNINVIVLELKGSETTF[hSer]CEYADETATIVEFLNRWITFSQSIISTLT
modifications: also: further groups not given here
B5: in test [1], the “Average EC50, pSTAT5 Assay (T cells), intact molecule” value was 46.7 nM.

B6: CMP-147 (ligand)
chain: APTSSSTKKTQLKLEHLLLDLQ[Nle]ILNGINNYKNPKLTR[Nle]L[hSer][Yn3(3)]KF[Ygp(3)][Nle]PKKATELKHLQCLEEELKPLEEVL[hSer]LAQSKNFHLRPRDLISNINVIVLELKGSETTF[hSer]CEYADETATIVEFLNRWITFSQSIISTLT
modifications: also: further groups not given here
As for B6, the “Average EC50, pSTAT5 Assay (T cells), intact molecule” value in test [1] stood at 3.86 nM.

B7: CMP-146 (ligand)
chain: APTSSSTKKTKLQLEHLLLDLQ[Nle]ILNGINNYKNPKLTR[Nle]L[hSer][Yn3(3)]KF[Ygp(3)][Nle]PKKATELKHLQCLEEELKPLEEVL[hSer]LAQSKNFHLRPRDLISNINVIVLELKGSETTF[hSer]CEYADETATIVEFLNRWITFSQSIISTLT
modifications: also: further groups not given here
As to B7, the “Average EC50, pSTAT5 Assay (T cells), intact molecule” value in test [1] came to 4.29 nM.

B8: CMP-148 (ligand)
chain: APTSSSTKKTQLQLKHLLLDLQ[Nle]ILNGINNYKNPKLTR[Nle]L[hSer][Yn3(3)]KF[Ygp(3)][Nle]PKKATELKHLQCLEEELKPLEEVL[hSer]LAQSKNFHLRPRDLISNINVIVLELKGSETTF[hSer]CEYADETATIVEFLNRWITFSQSIISTLT
modifications: also: further groups not given here
As to B8, the “Average EC50, pSTAT5 Assay (T cells), intact molecule” value in test [1] was found to be 3.57 nM.

B9: CMP-147, MMP2 cleaved (ligand)
chain: APTSSSTKKTQLKLEHLLLDLQ[Nle]ILNGINNYKNPKLTR[Nle]L[hSer][Yn3(3)]KF[Ygp(3)][Nle]PKKATELKHLQCLEEELKPLEEVL[hSer]LAQSKNFHLRPRDLISNINVIVLELKGSETTF[hSer]CEYADETATIVEFLNRWITFSQSIISTLT
modifications: also: MMP2-cleaved form, remnant not given here, Lys13 side chain attached moiety
With B9, in test [1], the “Average EC50 … MMP2 cleaved molecule” value came to 1.29 nM.

B10: CMP-148, MMP2 cleaved (ligand)
chain: APTSSSTKKTQLQLKHLLLDLQ[Nle]ILNGINNYKNPKLTR[Nle]L[hSer][Yn3(3)]KF[Ygp(3)][Nle]PKKATELKHLQCLEEELKPLEEVL[hSer]LAQSKNFHLRPRDLISNINVIVLELKGSETTF[hSer]CEYADETATIVEFLNRWITFSQSIISTLT
modifications: also: MMP2-cleaved form, remnant not given here, Lys15 side chain attached moiety
As to B10, the “Average EC50 … MMP2 cleaved molecule” value in test [1] amounted to 0.95 nM.

B11: CMP-150 (ligand)
chain: APTSSSTKKTQLQLEHLLLDLK[Nle]ILNGINNYKNPKLTR[Nle]L[hSer][Yn3(3)]KF[Ygp(3)][Nle]PKKATELKHLQCLEEELKPLEEVL[hSer]LAQSKNFHLRPRDLISNINVIVLELKGSETTF[hSer]CEYADETATIVEFLNRWITFSQSIISTLT
modifications: also: further groups not given here
For B11, the “Average EC50, pSTAT5 Assay (T cells), intact molecule” value in test [1] is 6.38 nM.
